Data reported in article PMC12416549 (2024).

T1: TNFR1 (Homo sapiens, UniProt P19438)
T1 chain: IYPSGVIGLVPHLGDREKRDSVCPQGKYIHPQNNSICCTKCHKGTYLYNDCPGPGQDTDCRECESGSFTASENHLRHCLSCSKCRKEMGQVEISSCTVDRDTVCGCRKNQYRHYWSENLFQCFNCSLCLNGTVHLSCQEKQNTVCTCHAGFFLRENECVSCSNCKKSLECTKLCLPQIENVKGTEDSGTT


Target: T1, TNFR1
Experiment: yeast display SC50

| Binder | apparent Kd (screen) [nM] |
| --- | --- |
| Y13M (designed binder) SMEEEVEKAAKEMEKKKKEAIEKHLEKLKAKDKEAAERFLKELEEAAKEYAKDEAKTMSEEEAKRRAKKYKEKVLLSELSEEEQKEIKEAEEKLVRTILKYVEEAAK | 0.593 |
| L40K (designed binder) SMEEEVEKAAKEYEKKKKEAIEKHLEKLKAKDKEAAERFKKELEEAAKEYAKDEAKTMSEEEAKRRAKKYKEKVLLSELSEEEQKEIKEAEEKLVRTILKYVEEAAK | 0.446 |
| E4N (designed binder) SMENEVEKAAKEYEKKKKEAIEKHLEKLKAKDKEAAERFLKELEEAAKEYAKDEAKTMSEEEAKRRAKKYKEKVLLSELSEEEQKEIKEAEEKLVRTILKYVEEAAK | 0.539 |
| F39V (designed binder) SMEEEVEKAAKEYEKKKKEAIEKHLEKLKAKDKEAAERVLKELEEAAKEYAKDEAKTMSEEEAKRRAKKYKEKVLLSELSEEEQKEIKEAEEKLVRTILKYVEEAAK | 4.39 |
| A30D (designed binder) SMEEEVEKAAKEYEKKKKEAIEKHLEKLKDKDKEAAERFLKELEEAAKEYAKDEAKTMSEEEAKRRAKKYKEKVLLSELSEEEQKEIKEAEEKLVRTILKYVEEAAK | 1.4 |
| E4G (designed binder) SMEGEVEKAAKEYEKKKKEAIEKHLEKLKAKDKEAAERFLKELEEAAKEYAKDEAKTMSEEEAKRRAKKYKEKVLLSELSEEEQKEIKEAEEKLVRTILKYVEEAAK | 0.718 |
| K41W (designed binder) SMEEEVEKAAKEYEKKKKEAIEKHLEKLKAKDKEAAERFLWELEEAAKEYAKDEAKTMSEEEAKRRAKKYKEKVLLSELSEEEQKEIKEAEEKLVRTILKYVEEAAK | 0.446 |
| K17M (designed binder) SMEEEVEKAAKEYEKKMKEAIEKHLEKLKAKDKEAAERFLKELEEAAKEYAKDEAKTMSEEEAKRRAKKYKEKVLLSELSEEEQKEIKEAEEKLVRTILKYVEEAAK | 0.79 |
| E26N (designed binder) SMEEEVEKAAKEYEKKKKEAIEKHLNKLKAKDKEAAERFLKELEEAAKEYAKDEAKTMSEEEAKRRAKKYKEKVLLSELSEEEQKEIKEAEEKLVRTILKYVEEAAK | 0.593 |
| E45G (designed binder) SMEEEVEKAAKEYEKKKKEAIEKHLEKLKAKDKEAAERFLKELEGAAKEYAKDEAKTMSEEEAKRRAKKYKEKVLLSELSEEEQKEIKEAEEKLVRTILKYVEEAAK | 2.05 |
| E19K (designed binder) SMEEEVEKAAKEYEKKKKKAIEKHLEKLKAKDKEAAERFLKELEEAAKEYAKDEAKTMSEEEAKRRAKKYKEKVLLSELSEEEQKEIKEAEEKLVRTILKYVEEAAK | 0.49 |
| E19N (designed binder) SMEEEVEKAAKEYEKKKKNAIEKHLEKLKAKDKEAAERFLKELEEAAKEYAKDEAKTMSEEEAKRRAKKYKEKVLLSELSEEEQKEIKEAEEKLVRTILKYVEEAAK | 0.446 |
| K29E (designed binder) SMEEEVEKAAKEYEKKKKEAIEKHLEKLEAKDKEAAERFLKELEEAAKEYAKDEAKTMSEEEAKRRAKKYKEKVLLSELSEEEQKEIKEAEEKLVRTILKYVEEAAK | 0.869 |
| E19P (designed binder) SMEEEVEKAAKEYEKKKKPAIEKHLEKLKAKDKEAAERFLKELEEAAKEYAKDEAKTMSEEEAKRRAKKYKEKVLLSELSEEEQKEIKEAEEKLVRTILKYVEEAAK | 22.2 |
| E34W (designed binder) SMEEEVEKAAKEYEKKKKEAIEKHLEKLKAKDKWAAERFLKELEEAAKEYAKDEAKTMSEEEAKRRAKKYKEKVLLSELSEEEQKEIKEAEEKLVRTILKYVEEAAK | 0.446 |
| E49R (designed binder) SMEEEVEKAAKEYEKKKKEAIEKHLEKLKAKDKEAAERFLKELEEAAKRYAKDEAKTMSEEEAKRRAKKYKEKVLLSELSEEEQKEIKEAEEKLVRTILKYVEEAAK | 0.956 |

Second part, the binder after the results:

| apparent Kd (screen) [nM] | Binder |
| --- | --- |
| 5.31 | V74R (designed binder) SMEEEVEKAAKEYEKKKKEAIEKHLEKLKAKDKEAAERFLKELEEAAKEYAKDEAKTMSEEEAKRRAKKYKEKRLLSELSEEEQKEIKEAEEKLVRTILKYVEEAAK |
| 0.653 | K68N (designed binder) SMEEEVEKAAKEYEKKKKEAIEKHLEKLKAKDKEAAERFLKELEEAAKEYAKDEAKTMSEEEAKRRANKYKEKVLLSELSEEEQKEIKEAEEKLVRTILKYVEEAAK |
| 3 | K56T (designed binder) SMEEEVEKAAKEYEKKKKEAIEKHLEKLKAKDKEAAERFLKELEEAAKEYAKDEATTMSEEEAKRRAKKYKEKVLLSELSEEEQKEIKEAEEKLVRTILKYVEEAAK |
| 0.0498 | K107D (designed binder) SMEEEVEKAAKEYEKKKKEAIEKHLEKLKAKDKEAAERFLKELEEAAKEYAKDEAKTMSEEEAKRRAKKYKEKVLLSELSEEEQKEIKEAEEKLVRTILKYVEEAAD |
| 2.73 | K73I (designed binder) SMEEEVEKAAKEYEKKKKEAIEKHLEKLKAKDKEAAERFLKELEEAAKEYAKDEAKTMSEEEAKRRAKKYKEIVLLSELSEEEQKEIKEAEEKLVRTILKYVEEAAK |
| 1.86 | E82N (designed binder) SMEEEVEKAAKEYEKKKKEAIEKHLEKLKAKDKEAAERFLKELEEAAKEYAKDEAKTMSEEEAKRRAKKYKEKVLLSELSENEQKEIKEAEEKLVRTILKYVEEAAK |
| 2.25 | K69G (designed binder) SMEEEVEKAAKEYEKKKKEAIEKHLEKLKAKDKEAAERFLKELEEAAKEYAKDEAKTMSEEEAKRRAKGYKEKVLLSELSEEEQKEIKEAEEKLVRTILKYVEEAAK |
| 2.73 | A106Y (designed binder) SMEEEVEKAAKEYEKKKKEAIEKHLEKLKAKDKEAAERFLKELEEAAKEYAKDEAKTMSEEEAKRRAKKYKEKVLLSELSEEEQKEIKEAEEKLVRTILKYVEEAYK |
| 1.86 | I98P (designed binder) SMEEEVEKAAKEYEKKKKEAIEKHLEKLKAKDKEAAERFLKELEEAAKEYAKDEAKTMSEEEAKRRAKKYKEKVLLSELSEEEQKEIKEAEEKLVRTPLKYVEEAAK |
| 2.48 | L79G (designed binder) SMEEEVEKAAKEYEKKKKEAIEKHLEKLKAKDKEAAERFLKELEEAAKEYAKDEAKTMSEEEAKRRAKKYKEKVLLSEGSEEEQKEIKEAEEKLVRTILKYVEEAAK |
| 0.446 | E104G (designed binder) SMEEEVEKAAKEYEKKKKEAIEKHLEKLKAKDKEAAERFLKELEEAAKEYAKDEAKTMSEEEAKRRAKKYKEKVLLSELSEEEQKEIKEAEEKLVRTILKYVEGAAK |
| 8.56 | E54K (designed binder) SMEEEVEKAAKEYEKKKKEAIEKHLEKLKAKDKEAAERFLKELEEAAKEYAKDKAKTMSEEEAKRRAKKYKEKVLLSELSEEEQKEIKEAEEKLVRTILKYVEEAAK |
| 2.73 | K68L (designed binder) SMEEEVEKAAKEYEKKKKEAIEKHLEKLKAKDKEAAERFLKELEEAAKEYAKDEAKTMSEEEAKRRALKYKEKVLLSELSEEEQKEIKEAEEKLVRTILKYVEEAAK |
| 2.73 | E78N (designed binder) SMEEEVEKAAKEYEKKKKEAIEKHLEKLKAKDKEAAERFLKELEEAAKEYAKDEAKTMSEEEAKRRAKKYKEKVLLSNLSEEEQKEIKEAEEKLVRTILKYVEEAAK |
| 0.49 | T57R (designed binder) SMEEEVEKAAKEYEKKKKEAIEKHLEKLKAKDKEAAERFLKELEEAAKEYAKDEAKRMSEEEAKRRAKKYKEKVLLSELSEEEQKEIKEAEEKLVRTILKYVEEAAK |
| 0.446 | K52M (designed binder) SMEEEVEKAAKEYEKKKKEAIEKHLEKLKAKDKEAAERFLKELEEAAKEYAMDEAKTMSEEEAKRRAKKYKEKVLLSELSEEEQKEIKEAEEKLVRTILKYVEEAAK |
| 0.79 | A106D (designed binder) SMEEEVEKAAKEYEKKKKEAIEKHLEKLKAKDKEAAERFLKELEEAAKEYAKDEAKTMSEEEAKRRAKKYKEKVLLSELSEEEQKEIKEAEEKLVRTILKYVEEADK |
| 1.16 | A105V (designed binder) SMEEEVEKAAKEYEKKKKEAIEKHLEKLKAKDKEAAERFLKELEEAAKEYAKDEAKTMSEEEAKRRAKKYKEKVLLSELSEEEQKEIKEAEEKLVRTILKYVEEVAK |
| 11.4 | A55F (designed binder) SMEEEVEKAAKEYEKKKKEAIEKHLEKLKAKDKEAAERFLKELEEAAKEYAKDEFKTMSEEEAKRRAKKYKEKVLLSELSEEEQKEIKEAEEKLVRTILKYVEEAAK |
